In patent publication US20160347810A1 (AFASCI, published 2016):
No end group written: not given here.

B1: AFA-Peptide 3 (MP-3) (peptide)
peptide: H-NFVPTNVGPFAF-NH2
notes: Synthetic dodecapeptide NH2-N-F-V-P-T-N-V-G-P-F-A-F-CONH2; also called AFA-CGRP receptor antagonist peptide 3
B2: AFA-Peptide 8 (MP-8) (peptide)
peptide: H-NLVPTNVGPFAF-NH2
notes: Analog of AFA-peptide 3: NH2-N-L-V-P-T-N-V-G-P-F-A-F-CONH2
B3: AFA-Peptide 6 (MP-6) (peptide)
peptide: H-NFIPTNVGPFAF-NH2
notes: Analog of AFA-peptide 3: NH2-N-F-I-P-T-N-V-G-P-F-A-F-CONH2
B4: AFA-Peptide 10 (MP-10) (peptide)
peptide: H-NFAPTNVGPFAF-NH2
notes: Analog of AFA-peptide 3: NH2-N-F-A-P-T-N-V-G-P-F-A-F-CONH2
B5: AFA-Peptide 9 (MP-9) (peptide)
peptide: H-NFFPTNVGPFAF-NH2
notes: Analog of AFA-peptide 3: NH2-N-F-F-P-T-N-V-G-P-F-A-F-CONH2
B6: AFA-Peptide 7 (MP-7) (peptide)
peptide: H-NFLPTNVGPFAF-NH2
notes: Analog of AFA-peptide 3: NH2-N-F-L-P-T-N-V-G-P-F-A-F-CONH2

Molecular target: T1, human calcitonin CGRP1 (CGRP1) membrane (human, UniProt Q16602 23-461; O60894 27-148)
T1 construct: whole, on cells; Purchased membrane preparation (Perkin Elmer), homogenised in assay buffer; the receptor stood in membranes, not intact cells; also called CGRP receptors; CGRP receptor
Experiment: displacement of 0.24 nM [125I]-CGRP from human CGRP1 receptor membranes, filtration; Ki by Cheng-Prusoff; mean ± SD
Method: CGRP1 membrane was homogenized in the assay buffer (50 mM Tris-HCl pH 7.4, 5 mM MgCl₂, 0.5% BSA, 0.05% Tween20). […] After 1 h of incubation, at room temperature, samples were filtered, using a Tomtec cell harvester, through glass fiber filters that had been presoaked in 0.05% polyethyleneimine and washed with the cold Tris buffer (50 mM Tris-HCl pH7.4). Filters were counted on a betaplate reader (Wallac).

T1 sequence (Q16602 23-461, chain 1 of 2): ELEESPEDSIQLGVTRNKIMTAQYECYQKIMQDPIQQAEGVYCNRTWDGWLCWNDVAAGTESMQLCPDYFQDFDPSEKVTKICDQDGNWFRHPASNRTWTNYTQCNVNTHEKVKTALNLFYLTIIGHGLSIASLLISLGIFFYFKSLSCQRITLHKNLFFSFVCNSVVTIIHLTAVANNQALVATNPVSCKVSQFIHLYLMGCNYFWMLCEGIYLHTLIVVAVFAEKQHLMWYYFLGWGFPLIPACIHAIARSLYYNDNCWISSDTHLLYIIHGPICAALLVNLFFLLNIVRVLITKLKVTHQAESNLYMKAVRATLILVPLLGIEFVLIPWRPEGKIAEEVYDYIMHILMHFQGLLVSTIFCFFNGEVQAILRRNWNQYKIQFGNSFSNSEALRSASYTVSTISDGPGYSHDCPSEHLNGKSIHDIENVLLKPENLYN
T1 sequence (O60894 27-148, chain 2 of 2): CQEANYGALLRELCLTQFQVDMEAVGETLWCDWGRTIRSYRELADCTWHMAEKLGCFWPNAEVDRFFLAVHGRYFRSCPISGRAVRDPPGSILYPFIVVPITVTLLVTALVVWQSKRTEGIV

Row | Binder | Ki [nM]
1 | B1 | 33.3
2 | B2 | 315
3 | B3 | 63.7
4 | B4 | 33.4
5 | B5 | 49.6
6 | B6 | 54.8
7 | YVPTAVGPFAF-NH2 (also called conventional CGRP 27-37) [CGRP 27-37] | 697
